Test results: patent publication US20180346526

Target: T1, YydF18-49, truncated form of YydF with residues 18 to 49
T1 chain: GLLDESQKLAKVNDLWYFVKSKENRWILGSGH

B1: YydG C223A mutant (protein)
chain: MYNKTVSINLDSRCNASCDHCCFSSSPTSTTRMEKEYIRELVTEFAKNKTIQVISFTGGEVFLDYKFLKELMEIIKPYEKQITLISNGFWGLSKKKVQEYFHDMNSLNVIALTISYDEYHAPFVKSSSIKNILEHSRKYPDIDISLNMAVTKDKMSNHILEELGDSILGVKITKFPMISVGAAKTRIKQENIHKFYSLEDEDSLHCPGYDIVYHHDGEIYPCASPAIFETKITLREEYNQSFERTVEKLNSNLLLFILRKEGFKWFLNILKENNKIEEFDIPYEFSSICGVCGSLFNSAEKINYFYPYMEKYYNENFKV
epimerization activity on the peptide substrate (HPLC, LC-MS): The C223A mutation did not either prevent the epimerization activity

B2: YydG, radical SAM epimerase of Bacillus subtilis (wild type) (protein)
chain: MYNKTVSINLDSRCNASCDHCCFSSSPTSTTRMEKEYIRELVTEFAKNKTIQVISFTGGEVFLDYKFLKELMEIIKPYEKQITLISNGFWGLSKKKVQEYFHDMNSLNVIALTISYDEYHAPFVKSSSIKNILEHSRKYPDIDISLNMAVTKDKMSNHILEELGDSILGVKITKFPMISVGAAKTRIKQENIHKFYSLEDEDSLHCPGYDIVYHHDGEIYPCCSPAIFETKITLREEYNQSFERTVEKLNSNLLLFILRKEGFKWFLNILKENNKIEEFDIPYEFSSICGVCGSLFNSAEKINYFYPYMEKYYNENFKV
Peptide 3*/Peptide 3 ratio relative to Peptide 2*/Peptide 2 ratio (tryptic peptide mapping): the Peptide 3*/Peptide 3 ratio was 5 times larger than the Peptide 2*/Peptide 2 ratio
epimerization of Ile residues: up to ˜35% of the Ile
epimerization of Val residues: ˜10% of Val residues
formation of epimerized peptide derivatives (HPLC): YydF18-49 proved to be a better substrate
moles of 5'-dA produced per mole of modified product: YydG produced one mole of 5′-dA per mole of modified product

B3: YydG A3 mutant (AxxxAxxA) (protein)
chain: MYNKTVSINLDSRANASADHACFSSSPTSTTRMEKEYIRELVTEFAKNKTIQVISFTGGEVFLDYKFLKELMEIIKPYEKQITLISNGFWGLSKKKVQEYFHDMNSLNVIALTISYDEYHAPFVKSSSIKNILEHSRKYPDIDISLNMAVTKDKMSNHILEELGDSILGVKITKFPMISVGAAKTRIKQENIHKFYSLEDEDSLHCPGYDIVYHHDGEIYPCCSPAIFETKITLREEYNQSFERTVEKLNSNLLLFILRKEGFKWFLNILKENNKIEEFDIPYEFSSICGVCGSLFNSAEKINYFYPYMEKYYNENFKV
conversion of the peptide substrate and SAM cleavage (HPLC): the A3 mutant was unable to convert the peptide substrate and to cleave SAM

B4: YydG C222A mutant (protein)
chain: MYNKTVSINLDSRCNASCDHCCFSSSPTSTTRMEKEYIRELVTEFAKNKTIQVISFTGGEVFLDYKFLKELMEIIKPYEKQITLISNGFWGLSKKKVQEYFHDMNSLNVIALTISYDEYHAPFVKSSSIKNILEHSRKYPDIDISLNMAVTKDKMSNHILEELGDSILGVKITKFPMISVGAAKTRIKQENIHKFYSLEDEDSLHCPGYDIVYHHDGEIYPACSPAIFETKITLREEYNQSFERTVEKLNSNLLLFILRKEGFKWFLNILKENNKIEEFDIPYEFSSICGVCGSLFNSAEKINYFYPYMEKYYNENFKV
enzyme activity on the peptide substrate (HPLC): The C222A mutant was also totally impaired for enzyme activity

B5: YydG C22A mutant (protein)
chain: MYNKTVSINLDSRCNASCDHCAFSSSPTSTTRMEKEYIRELVTEFAKNKTIQVISFTGGEVFLDYKFLKELMEIIKPYEKQITLISNGFWGLSKKKVQEYFHDMNSLNVIALTISYDEYHAPFVKSSSIKNILEHSRKYPDIDISLNMAVTKDKMSNHILEELGDSILGVKITKFPMISVGAAKTRIKQENIHKFYSLEDEDSLHCPGYDIVYHHDGEIYPCCSPAIFETKITLREEYNQSFERTVEKLNSNLLLFILRKEGFKWFLNILKENNKIEEFDIPYEFSSICGVCGSLFNSAEKINYFYPYMEKYYNENFKV
enzyme activity on the peptide substrate (HPLC): the C22A mutation did not affect the activity of the enzyme and the three epimerized peptides were produced
